Test results as given in article PMC5039643, “Independent multimerization of Latent TGFβ Binding Protein-1 stabilized by cross-linking and enhanced by heparan sulfate” (Scientific Reports, 2016).
Blank lines part the entries; values can stand above or below the molecule they belong to.

Key:
[1] = target: Latent TGFβ Binding Protein-1, short form (LTBP1S), full length; test: negative stain EM; LTBP1 oligomers imaged by negative stain EM; lengths measured with ImageJ (n = 100 from 32 images)
[2] = target: Latent TGFβ Binding Protein-1, short form (LTBP1S), full length; test: SEC-MALS; Superdex 200 or Superose 6; 0.5 ml at ~0.5 mg/ml; 10 mM Tris, 150 mM NaCl, 2 mM CaCl2, pH 7.4; self-association; NT2 monomer also stored overnight at 4 °C in 2 mM calcium and the dimer fraction rerun
[3] = target: the molecule itself; test: as above
[4] = target: the molecule itself; test: AUC; ~0.5 mg/ml; 10 mM Tris, 150 mM NaCl, 2 mM CaCl2, pH 7.4; self-association; NT1 also after 12 h pre-incubation with ~10x molar excess of low molecular weight heparin

stoichiometry N [1]: 4 to 5 | stoichiometry N [2]: 4 to 5
Molecule: Latent TGFβ Binding Protein-1, short form (LTBP1S), full length (natural protein)

B1: LTBP1 N-terminal construct NT2 (residues 21–630) (domain or fragment, UniProt Q14766-2 21-630, looked up)
chain: NHTGRIKVVFTPSICKVTCTKGSCQNSCEKGNTTTLISENGHAADTLTATNFRVVICHLPCMNGGQCSSRDKCQCPPNFTGKLCQIPVHGASVPKLYQHSQQPGKALGTHVIHSTHTLPLTVTSQQGVKVKFPPNIVNIHVKHPPEASVQIHQVSRIDGPTGQKTKEAQPGQSQVSYQGLPVQKTQTIHSTYSHQQVIPHVYPVAAKTQLGRCFQETIGSQCGKALPGLSKQEDCCGTVGTSWGFNKCQKCPKKPSYHGYNQMMECLPGYKRVNNTFCQDINECQLQGVCPNGECLNTMGSYRCTCKIGFGPDPTFSSCVPDPPVISEEKGPCYRLVSSGRQCMHPLSVHLTKQLCCCSVGKAWGPHCEKCPLPGTAAFKEICPGGMGYTVSGVHRRRPIHHHVGKGPVFVKPKNTQPVAKSTHPPPLPAKEEPVEALTFSREHGPGVAEPEVATAPPEKEIPSLDQEKTKLEPGQPQLSPGISTIHLHPQFPVVIEKTSPPVPVEVAPEASTSSASQVIAPTQVTEINECTVNPDICGAGHCINLPVRYTCICYEGYRFSEQQRKCVDIDECTQVQHLCSQGRCENTEGSFLCICPAGFMASEEGTNCI
notes: LTBP1S residues 21-630; also called NT2 region
stoichiometry N [3]: 2

B2: LTBP1 N-terminal construct NT1 (residues 21–488) (domain or fragment, UniProt Q14766-2 21-488, looked up)
chain: NHTGRIKVVFTPSICKVTCTKGSCQNSCEKGNTTTLISENGHAADTLTATNFRVVICHLPCMNGGQCSSRDKCQCPPNFTGKLCQIPVHGASVPKLYQHSQQPGKALGTHVIHSTHTLPLTVTSQQGVKVKFPPNIVNIHVKHPPEASVQIHQVSRIDGPTGQKTKEAQPGQSQVSYQGLPVQKTQTIHSTYSHQQVIPHVYPVAAKTQLGRCFQETIGSQCGKALPGLSKQEDCCGTVGTSWGFNKCQKCPKKPSYHGYNQMMECLPGYKRVNNTFCQDINECQLQGVCPNGECLNTMGSYRCTCKIGFGPDPTFSSCVPDPPVISEEKGPCYRLVSSGRQCMHPLSVHLTKQLCCCSVGKAWGPHCEKCPLPGTAAFKEICPGGMGYTVSGVHRRRPIHHHVGKGPVFVKPKNTQPVAKSTHPPPLPAKEEPVEALTFSREHGPGVAEPEVATAPPEKEIPSLDQE
notes: LTBP1S residues 21-488; also called NT1 region
stoichiometry N [4]: 2
